Laboratory results reported in US11421026B2, “Antibodies that bind human cannabinoid 1 (CB1) receptor” (BIRD ROCK BIO, Inc., priority 2015, dated 2022).
Numbering of substitutions follows the chain as printed.

B1: PA2LR3-P4C6: phage-derived CB1 binding IgG clone (antibody, V domains shown)
VH: EVQLQQSGAELVRPGSSVKISCKASGYAFSYYWMNWVKQRPGQGLEWIGQIYPGDGDTNYNGKFKGKATLTADKSSSTAYMQLSSLTSEDSAVYFCARSHGNYFPYWGQGTLVTVSA
VL: DIVITQSPAIVSASLGERVTMTCTASSSVSSSYLHWYQQKPGSSPKLWIYSTSNLASGVPARFSGSGSGTSYSLTISSMEAEDAATYYCQQWSSYPLTFGAGTKLEIK
modifications: PA2LR3-P4C6 Heavy Chain Variable region; PA2LR3-P4C6 Light Chain Variable region
B2: PA2LR3-P3F8: phage-derived CB1 antibody clone (antibody, V domains shown)
VH: B1 VH with Y31N, K63N
VL: B1 VL with I4L, V11M, I107L
modifications: PA2LR3-P3F8 Heavy Chain Variable Region; PA2LR3-P3F8 Light Chain Variable Region
notes: phage-derived CB1 antibody clone
B3: 36E12B6C2 Fab: Fab of 36E12B6C2 (antibody, V domains shown)
VH: B1 VH with E1Q, A28E, E46Q, Q82H, S84T, H100G, Y103P, P105A, Y106F
VL: DIQMTQTSSSLSASLGDRVTFSCRASQDISNYLNWYQQKPDGTVKLLIYYTSRLHSGVTSRFRGSGSGTDYSLTISNLEQEDVATYFCQQGHTLPWSFGGGTKLEIK
B4: PA2LR3-P4G10: phage-derived CB1 binding IgG clone (antibody, V domains shown)
VH: B1 VH with S7F, P105A
VL: B1 VL with I4L, V11M, Y95N, I107L
modifications: PA2LR3-P4G10 Heavy Chain Variable region; PA2LR3-P4G10 Light Chain Variable region
B5: PA2LR3-P4B5: anti-CB1 antibody; HC variable SEQ ID NO: 26, LC variable SEQ ID NO: 30 (antibody, V domains shown)
VH: B1 VH with N61S, K63R, M81I
VL: B1 VL with I4L, T5N, V11M, Q90H, W92Y, S93H, S94R, Y95S
modifications: PA2LR3- P4B5 Heavy chain variable region; PA2LR3- P4B5 Light chain variable region
B6: PA2LR3-P6B12: anti-CB1 antibody; HC variable SEQ ID NO: 50, LC variable SEQ ID NO: 54 (antibody, V domains shown)
VH: B1 VH with P105A
VL: B1 VL with D1Q, I4L, V11M, Q90H, W92Y, S93H, S94R, Y95S, T98A, I107L
modifications: PA2LR3-P6B12 Heavy chain variable region; PA2LR3-P6B12 Light chain variable region
B7: PA2LR3-P5E7: phage-derived CB1 antibody clone (antibody, V domains shown)
VH: B1 VH with Y31N, Y60F, K67R, T69I, K74I, S77N
VL: DIVLTQSPTTMAASPGEKITITCSASSSISSNYLHWYQQKPGFSPKLLIYRTSTLASGVPARFSGSGSGTSYSLTISSMEAEDAATYYCHQYHRSPHTFGSGTKLEIK
modifications: PA2LR3-P5E7 Heavy Chain Variable region; PA2LR3-P5E7 Light Chain Variable region
notes: as for B2
B8: PA2LR3-P3A8: phage-derived CB1 antibody clone (antibody, V domains shown)
VH: B1 VH with F64V, P105A
VL: B1 VL with I4M, V11M, Y95N, I107L
modifications: PA2LR3-P3A8 Heavy Chain Variable Region; PA2LR3-P3A8 Light Chain Variable Region
notes: as for B2
B9: PA2LR3-P6G7: anti-CB1 antibody; HC variable SEQ ID NO: 58, LC variable SEQ ID NO: 62 (antibody, V domains shown)
VH: B1 VH with Y27F, Y31N, Y60F, K67R, T69I, K74I, S77N
VL: B1 VL with I4L, V11M, Q90H, W92H, S93H, S94R, Y95S, L97P, I107L
modifications: PA2LR3-P6G7 Heavy chain variable region; PA2LR3-P6G7 Light chain variable region
B10: PA2LR3-P4B1: anti-CB1 antibody; HC variable SEQ ID NO: 42, LC variable SEQ ID NO: 46 (antibody, V domains shown)
VH: B1 VH with Y27F, Y31N, Y60F, K67R, T69I, K74I, S77N
VL: B1 VL with D1Q, I4L, V11M, Q90H, W92Y, S93H, S94R, Y95S, I107L
modifications: PA2LR3-P4B1 Heavy chain variable region; PA2LR3-P4B1 Light chain variable region

Columns and labels:
[1] = system: CB1 receptor signaling, WIN55,212 induced ERK phosphorylation in Trex-CHO CB1 receptor cells; experiment: ERK activation assay (western blot); assay type: cell-based, human; conditions: 100 nM
Experimental: (§1) Two days before the experiment, Trex-CHO CB1 receptor cells were seeded at 500,000 cells/well into 6-well plates. 1 μg/mL tetracycline was used to induce CB1 receptor expression after 24 hours. Cells were serum starved for at least two hours before the experiment. […] Cell lysates were harvested and the level of ERK activation was determined by western blot. Anti-ERK and Anti-phospho-specific ERK antibodies were obtained from Cell Signaling Inc.
as §1, with “Trex-CHO CB1 receptor-expressing cells were” for “Trex-CHO CB1 receptor cells were”

[2] = target: T1, human CB1 expressing TRex-CHO cells (Homo sapiens, UniProt P21554); assay type: cell-based; conditions: forskolin stimulated TRex-CHO CB1 cells
T1 construct: pcDNA4/TO native full length human CB1 receptor construct was transfected into tetracycline inducible system Trex-CHO and Trex-293 cells; expressed in transfected cells
Experimental: Data analysis was performed using GraphPad Prism software.
Data analysis was performed using GraphPad Prism.

[3] = target: T2, CB1 surface expression (CB1 TRex-CHO / TRex-293 cells) (Homo sapiens, UniProt P21554); assay type: cell-based; conditions: for effect on WIN55,212 induced CB1 receptor internalization: antibody 300 nM pre-treatment, 1 μM WIN55,212 1 hour; for CB1 receptor internalization induced by the substance alone: 1 hour
T2 construct: pcDNA4/TO native full length human CB1 receptor construct was transfected into tetracycline inducible system Trex-CHO and Trex-293 cells; expressed in transfected cells; tetracycline induced
Experimental: 5×10^5 cells/well stably expressing CB1 TRex-CHO cells were seeded in a 6-well plate. Tetracycline (1 μg/ml) was added to culture medium for 24 hours to induce CB1 expression. On the day of the experiment, cells were serum starved for 2 hours. Cells were then pre-incubated with CB1 antibody (300 nM), AM6545 (CB1 neutral antagonist) and negative control (BRIL binder) for half an hour. […] Surface expression of CB1 was stained with anti-CB1 N-terminus mouse monoclonal antibody from R&D and the mean fluorescence intensity (MFI) was determined using flow cytometry.
The impact of CB1 antibody on receptor internalization was also investigated. […] Cells were harvested and stained with anti-CB1 N-terminus mouse monoclonal antibody (R&D).
On the day of the experiment, cells were serum starved for 2 hours. Cells were then pre-incubated with CB1 antibody (300 nM), AM6545 (CB1 neutral antagonist) and negative control (BRIL binder) for half an hour. […] Surface expression of CB1 was stained with anti-CB1 N-terminus mouse monoclonal antibody from R&D and the mean fluorescence intensity (MFI) was determined using flow cytometry (Guava).

[4] = target: A138 iCAPS (human CB1, ICL3 replaced with protein 1 sequence); experiment: ELISA binding of IgG/Fab to CB1 iCAPS A138; conditions: IgG and Fab ELISA, Table 8
Experimental: (§2) Purified IgG was tested for binding to purified CB1 receptor (CB1 Conformation Antigen Presenting System (iCAPS)) by ELISA. Non-biotinylated antigens (e.g. empty iCAPS) were coated directly on Maxisorp plates. The primary antibodies were purified IgGs with 1:3 serial dilutions, incubated on the plate for 1 hour. After 3 rounds of washing with PBST, secondary antibodies HRP goat anti-mouse IgG (Abmart) or HRP goat anti-human IgG (Sigma), depending on the species of the IgGs were added and incubated for another hour. The plates were washed three times with PBST, then developed with TMB (Biopanda). HCl was added to the plates to stop the reaction. Absorbance at 450 nm was read on Emax precision microplate reader (Molecular Devices).
(§3) IgG and Fab molecules tested were 36E12B6C2 IgG, 36E12B6C2 Fab, PA13R3-P1C4 IgG, and PA13R3-P1C4 Fab, compared to negative control BRIL binder P1F7 IgG and P1F7 Fab. For IgG antibodies, the secondary antibody used to detect binding was anti-mouse IgG-HRP; for Fabs, the secondary antibody used to detect binding was anti-human IgG-HRP.

[5] = target: A139 iCAPS (human CB1, ICL3 replaced with BRIL); experiment: ELISA binding of IgG/Fab to CB1 iCAPS A139; conditions: IgG and Fab ELISA, Table 8
Experimental: as §2, §3

T2 sequence (P21554 whole entry): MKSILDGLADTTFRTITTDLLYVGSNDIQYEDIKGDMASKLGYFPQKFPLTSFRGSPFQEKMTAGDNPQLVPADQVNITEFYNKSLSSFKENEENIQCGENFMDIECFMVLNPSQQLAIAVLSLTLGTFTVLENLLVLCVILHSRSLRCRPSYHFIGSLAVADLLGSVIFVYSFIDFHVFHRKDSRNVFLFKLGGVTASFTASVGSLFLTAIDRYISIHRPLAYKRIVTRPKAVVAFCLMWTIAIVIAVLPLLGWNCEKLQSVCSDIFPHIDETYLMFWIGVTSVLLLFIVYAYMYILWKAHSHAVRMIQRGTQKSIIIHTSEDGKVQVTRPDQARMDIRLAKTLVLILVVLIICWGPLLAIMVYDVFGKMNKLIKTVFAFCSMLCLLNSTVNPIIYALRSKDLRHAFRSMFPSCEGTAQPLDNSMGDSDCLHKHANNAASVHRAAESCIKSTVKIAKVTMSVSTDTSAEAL
T1 sequence (P21554 whole entry): as above

Molecule | effect on WIN55,212 induced CB1 receptor internalization [3] | CB1 receptor internalization induced by the substance alone [3] | also measured
Cc1c(C(=O)c2cccc3ccccc23)c2cccc3c2n1[C@H](CN1CCOCC1)CO3 [WIN55,212, reference compound] | – | – | ERK activation by agonist [1]: induced ERK activation
Cc1c(C(=O)NN2CCS(=O)(=O)CC2)nn(-c2ccc(Cl)cc2Cl)c1-c1ccc(C#CCCC#N)cc1 [AM6545, reference compound] | blocked | – | effect on cAMP levels without exogenous agonist / mechanism [2]: did not affect cAMP levels
B1 | do not block | do not induce | –
B2 | do not block | do not induce | –
B3 | – | – | EC50 [4]: 1.02 nM; EC50 [5]: 0.805 nM
B4 | do not block | do not induce | –
B5 | do not block | do not induce | –
B6 | do not block | do not induce | –
B7 | do not block | do not induce | –
B8 | do not block | do not induce | –
B9 | do not block | do not induce | –
B10 | do not block | do not induce | –
